Assay results: patent publication US12281340B2, “Method of producing N-acyl-amino group-containing compound” (AJINOMOTO CO., INC., priority 2018, dated 2025)

Tests used:
Assay type in all cases: biochemical
Design in all cases: key: +: Detected; −: Not detected
[1] = Synthesis of N-acylamino acids from various fatty acids using purified acylamino acid synthetase, UPLC-MS detection
Experimental: 0.1 mL of a reaction solution containing 50 mM Tris-HCl, 5 mM amino acid, 5 mM sodium fatty acid (3 mM of sodium palmitate or sodium stearate), 10 mM ATP, 10 mM MgCl2, 1 mM DTT, 200 μg/mL of the purified enzyme, pH 8.0 was shaken at 25° C. for 24 hours. When sodium palmitate or sodium stearate was used, methanol at a final concentration of 10% (v/v) was contained in the reaction solution. As the amino acid, L-Asp was used in AtGH3-6, OsGH3-8, AtGH3-5, AtGH3-12, L-Ile was used in AtJAR1, L-Ala was used in AtGH3-10, SsGH3, L-Glu was used in AtGH3-17, Gly was used in CfHP, L-Lys was used in PsIAAL, and L-Cys was used in PaHP. After completion of the reaction, 0.4 mL of the reaction stop solution (1% (v/v) phosphoric acid, 75% (v/v) methanol) was added, and the mixture was filtrated through the filter followed by being subjected to the UPLC-MS analysis to detect a signal of a molecular weight corresponding to the N-acylamino acid.
The condition for the UPLC-MS analysis is as follows.
(§1) Apparatus: ACQUITY UPLC (Waters)
Column: ACQUITY UPLC BEH C18 1.7 μm 2.1×100 mm Column (Waters), mobile phase A: 0.1% formic acid; mobile phase B: acetonitrile
• Flow rate: 0.6 mL/minute • Injection amount: 2 μL • Column temperature: 40° C. • Ionization method: ESI-negative
As a result of the UPLC-MS analysis, the signal of the molecular weight corresponding to the appropriate N-acylamino acid was confirmed in the reaction solution containing the enzyme in combination with sodium fatty acid shown in Table 7 below.

[2] = Synthesis of N-caprinoyl-amino acid derivative, N-caprinoyl-D-amino acid and N-caprinoyl-peptide using purified acylamino acid synthetase, UPLC-MS detection; conditions: +ATP
Experimental: 0.2 mL of a reaction solution containing 50 mM Tris-HCl, 5 mM amino acid derivative or D-amino acid or peptide, 5 mM sodium caprate, 10 mM ATP, 10 mM MgCl2, 1 mM DTT, 50 μg/mL of the purified enzyme, pH 8.0 was incubated at 25° C. for 24 hours. After completion of the reaction, 0.8 mL of the reaction stop solution (1% (v/v) phosphoric acid, 75% (v/v) methanol) was added, and the mixture was filtrated through the filter followed by being subjected to the UPLC-MS analysis to detect a signal of a molecular weight corresponding to an N-caprinoyl-amino acid derivative, an N-caprinoyl-amino acid or an N-caprinoyl-peptide. A condition for the UPLC-MS analysis is as described in Example 2.
As a result of the UPLC-MS analysis, the signal of the molecular weight corresponding to the N-caprinoyl-amino acid derivative, or N-caprinoyl-amino acid, or N-caprinoyl-peptide was confirmed in the reaction solution containing the enzyme in combination with the amino acid derivative or the D-amino acid or the peptide shown in Table 4 below.

[3] = Synthesis of N-caprinoylamino acid using purified acylamino acid synthetase, UPLC-MS detection; conditions: +ATP
Experimental: 2.0 mL of a reaction solution containing 50 mM Tris-HCl, 5 mM amino acid, 5 mM sodium caprate, 10 mM ATP, 10 mM MgCl2, 1 mM DTT, 50 μg of the purified enzyme, pH 8.0 was incubated at 25° C. for 24 hours. After completion of the reaction, 0.8 mL of a reaction stop solution (1% (v/v) phosphoric acid, 75% (v/v) methanol) was added, and the mixture was filtrated through a filter followed by being subjected to the UPLC-MS analysis to detect a signal of a molecular weight corresponding to an N-caprinoyl amino acid.
A UPLC-MS analysis condition is as follows.
as §1
• Column: ACQUITY UPLC BEH C18 1.7 2.1×100 mm Column (Waters) • Mobile phase A: 0.1% formic acid • Mobile phase B: acetonitrile Gradient
• Flow rate: 0.6 mL/min • Injection amount: 2 μL • Column temperature: 40° C. • Ionization method: ESI-negative
As a result of the UPLC-MS analysis, the signal of the molecular weight corresponding to the N-caprinoyl amino acid was confirmed in the reaction solution combining the enzyme and the amino acid shown in Table 3 below.

signal of molecular weight corresponding to N-acylamino acid ([1]; substrates L-Ala and Capric acid): +
signal of molecular weight corresponding to N-acylamino acid ([1]; substrates L-Ala and Caproic acid): +
signal of molecular weight corresponding to N-acylamino acid ([1]; substrates L-Ala and Caprylic acid): +
signal of molecular weight corresponding to N-acylamino acid ([1]; substrates L-Ala and Lauric acid): +
signal of molecular weight corresponding to N-acylamino acid ([1]; substrates L-Ala and Linoleic acid): −
signal of molecular weight corresponding to N-acylamino acid ([1]; substrates L-Ala and Palmitic acid): −
signal of molecular weight corresponding to N-acylamino acid ([1]; substrates L-Ala and myristic acid): +
signal of molecular weight corresponding to N-acylamino acid ([1]; substrates L-Lys and Capric acid): +
signal of molecular weight corresponding to N-acylamino acid ([1]; substrates L-Lys and Caproic acid): +
signal of molecular weight corresponding to N-acylamino acid ([1]; substrates L-Lys and Caprylic acid): +
signal of molecular weight corresponding to N-acylamino acid ([1]; substrates L-Lys and Lauric acid): +
signal of molecular weight corresponding to N-acylamino acid ([1]; substrates L-Lys and Linoleic acid): −
signal of molecular weight corresponding to N-acylamino acid ([1]; substrates L-Lys and Palmitic acid): +
signal of molecular weight corresponding to N-acylamino acid ([1]; substrates L-Lys and myristic acid): +
signal of molecular weight corresponding to N-caprinoyl compound ([2]; substrates Carnosine and sodium caprate): −
signal of molecular weight corresponding to N-caprinoyl compound ([2]; substrates D-Ala and sodium caprate): +
signal of molecular weight corresponding to N-caprinoyl compound ([2]; substrates D-Asp and sodium caprate): +
signal of molecular weight corresponding to N-caprinoyl compound ([2]; substrates D-Cys and sodium caprate): +
signal of molecular weight corresponding to N-caprinoyl compound ([2]; substrates D-Glu and sodium caprate): +
signal of molecular weight corresponding to N-caprinoyl compound ([2]; substrates D-Ile and sodium caprate): −
signal of molecular weight corresponding to N-caprinoyl compound ([2]; substrates D-Lys and sodium caprate): −
signal of molecular weight corresponding to N-caprinoyl compound ([2]; substrates L-Asp-L-Phe and sodium caprate): −
signal of molecular weight corresponding to N-caprinoyl compound ([2]; substrates L-Gly-L-Gly and sodium caprate): +
signal of molecular weight corresponding to N-caprinoyl compound ([2]; substrates Sarcosine and sodium caprate): −
signal of molecular weight corresponding to N-caprinoyl compound ([2]; substrates Taurine and sodium caprate): +
signal of molecular weight corresponding to N-caprinoyl amino acid ([3]; substrates GABA and sodium caprate): +
signal of molecular weight corresponding to N-caprinoyl amino acid ([3]; substrates Gly and sodium caprate): +
signal of molecular weight corresponding to N-caprinoyl amino acid ([3]; substrates L-Ala and sodium caprate): +
signal of molecular weight corresponding to N-caprinoyl amino acid ([3]; substrates L-Arg and sodium caprate): +
signal of molecular weight corresponding to N-caprinoyl amino acid ([3]; substrates L-Asn and sodium caprate): +
signal of molecular weight corresponding to N-caprinoyl amino acid ([3]; substrates L-Asp and sodium caprate): +
signal of molecular weight corresponding to N-caprinoyl amino acid ([3]; substrates L-Cys and sodium caprate): −
signal of molecular weight corresponding to N-caprinoyl amino acid ([3]; substrates L-Gln and sodium caprate): +
signal of molecular weight corresponding to N-caprinoyl amino acid ([3]; substrates L-Glu and sodium caprate): −
signal of molecular weight corresponding to N-caprinoyl amino acid ([3]; substrates L-His and sodium caprate): +
signal of molecular weight corresponding to N-caprinoyl amino acid ([3]; substrates L-Ile and sodium caprate): +
signal of molecular weight corresponding to N-caprinoyl amino acid ([3]; substrates L-Leu and sodium caprate): +
signal of molecular weight corresponding to N-caprinoyl amino acid ([3]; substrates L-Lys and sodium caprate): +
signal of molecular weight corresponding to N-caprinoyl amino acid ([3]; substrates L-Met and sodium caprate): +
signal of molecular weight corresponding to N-caprinoyl amino acid ([3]; substrates L-Phe and sodium caprate): +
signal of molecular weight corresponding to N-caprinoyl amino acid ([3]; substrates L-Pro and sodium caprate): +
signal of molecular weight corresponding to N-caprinoyl amino acid ([3]; substrates L-Ser and sodium caprate): +
signal of molecular weight corresponding to N-caprinoyl amino acid ([3]; substrates L-Thr and sodium caprate): +
signal of molecular weight corresponding to N-caprinoyl amino acid ([3]; substrates L-Trp and sodium caprate): +
signal of molecular weight corresponding to N-caprinoyl amino acid ([3]; substrates L-Tyr and sodium caprate): +
signal of molecular weight corresponding to N-caprinoyl amino acid ([3]; substrates L-Val and sodium caprate): +
signal of molecular weight corresponding to N-caprinoyl amino acid ([3]; substrates β-Ala and sodium caprate): +
B1: AtGH3-10: GH3-10 from Arabidopsis thaliana, His-tagged (protein, listed as Arabidopsis thaliana)
chain: METVEAGHDDVIGWFEHVSENACKVQSETLRRILELNSGVEYLRKWLGTVDVEKMDDYTLETLFTSLVPIVSHADLDPYIQRIADGETSPLLTQEPITVLSLSSGTTEGRQKYVPFTRHSAQTTLQIFRLSAAYRSRFYPIREGGRILEFIYAGKEFKTLGGLTVGTATTHYYASEEFKTKQETTKSFTCSPQEVISGGDFGQCTYCHLLLGLHYSSQVEFVASAFSYTIVQAFSFFEEIWREICADIKEGNLSSRITLPKMRKAVLALIRPNPSLASHIEEICLELETNLGWFGLISKLWPNAKFISSIMTGSMLPYLNKLRHYAGGLPLVSADYGSTESWIGVNVDPHLPPEDVSFAVIPTFSYFEFIPLYRRQNQSDICIDGDFVEDKPVPLSQVKLGQEYELVLTTFTGLYRYRLGDVVEVTSFHKGTPKLSFIYRRKLILTINIDKNTEKDLQRVVDKASQLLSRSTRAEVVDFTSHADVIARPGHYVIYWEIRGEADDKALEECCREMDTAFVDYGYVVSRRMNSIGPLELRVVERGTFGKVAERCVGKCGGLNQFKTPRCTTNSVMLDILNDSTIKRFRSSAYD
modifications: His-tag
notes: GH3-10 from Arabidopsis thaliana, His-tagged
